The chains are these.
B1: Azoarcus group I ribozyme (parent)
chain: GUGCCUUGCGCCGGGAAACCACGCAAGGGAUGGUGUCAAAUUCGGCGAAACCUAAGCGCCCGCCCGGGCGUAUGGCAACGCCGAGCCAAGCUUCGGCGCCUGCGCCGAUGAAGGUGUAGAGACUAGACGGCACCCACCUAAGGCAAACGCUAUGGUGAAGGCAUAGUCCAGGGAGUGGCGAAAGUCACACAAACCGG

The variants in this data set derive from B1. In words: reverse-splicing fitness (ratio to wild type); higher = more active; in vitro selection; Mg2+ level not given. The gist of the method:
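An in vitro group I ribozyme library with randomized positions was T7-transcribed and gel-purified. In triplicate, 10 pmol RNA in EPPS pH 7.5 was reacted with 50 pmoles of a 30-nt RNA substrate for 1 h at 37 °C across several added MgCl2 levels (1–48 mM), then stopped with EDTA. Products were reverse transcribed from a substrate-complementary primer, PCR-amplified and sequenced (HiSeq 4000). Fitness is a variant's read proportion after selection over that before, normalised to wild type.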
Take GUGCCUUGCGCCGGGAAACCACGCAAGGGAUGGUGUCAAAUUCGGCGAAACCUAAGCGCCCGCCCGGGCGUAUGGCAACGCUGAGCCAAGCUUCGGCGCCUGCGCCGAUGGAGGUGUAGGGACUAGACGGCACCCACCUAAGGCUAACGUUAUGGUGAAGGCAUAGUCCAGGGAGAGGCGAAAGUCACACAAACCGG [C82U A111G A120G A145U C150U U176A]: the reverse-splicing fitness was found to be 0.00942. For GUGCCUUGCGCCGGGAAACCACGCAAGGGAUGGUGUCAAAUUCGGCGAAACCUAAGCGCCCGCCCGGGCGUAUGGCAACGCCGAGCCAAGCUUCGGCGCCUGCGCCGAUGGAGGUGUAGCGACUAGACGGCACCCACCUAAGGCAAACGUUAUGGUGAAGGCAUAGUCGAGGGAGCGGCGAAAGUCACACAAACCGG [A111G A120C C150U C169G U176C], the reverse-splicing fitness came to 0.0169. Next, GUGCCUUGCGCCGGGAAACCACGCAAGGGAUGGUGUCAAAUUCGGCGAAACCUAAGCGCCCGCCCGGGCGUAUGGCAACGCUGAGCCAAGCUUCGGCGCCUGCGCCGAUGAAGGUGUAGGGACUAGACGGCACCCACCUAAGGCAAACGAUAUGGUGAAGGCAUAGUCUAGGGAGCGGCGAAAGUCACACAAACCGG [C82U A120G C150A C169U U176C]: 0.0174. For GUGCCUUGCGCCGGGAAACCACGCAAGGGAUGGUGUCAAAUUCGGCGAAACCUAAGCGCCCGCCCGGGCGUAUGGCAACGCGGAGCCAAGCUUCGGCGCCUGCGCCGAUGGAGGUGUAGGGACUAGACGGCACCCACCUAAGGCCAACGUUAUGGUGAAGGCAUAGUCUAGGGAGUGGCGAAAGUCACACAAACCGG [C82G A111G A120G A145C C150U C169U], the reverse-splicing fitness was determined as 0.0088. On to GUGCCUUGCGCCGGGAAACCACGCAAGGGAUGGUGUCAAAUUCGGCGAAACCUAAGCGCCCGCCCGGGCGUAUGGCAACGCCGAGCCAAGCUUCGGCGCCUGCGCCGAUGUAGGUGUAGUGACUAGACGGCACCCACCUAAGGCUAACGAUAUGGUGAAGGCAUAGUCUAGGGAGAGGCGAAAGUCACACAAACCGG [A111U A120U A145U C150A C169U U176A], for which the reverse-splicing fitness stood at 0.00294. With GUGCCUUGCGCCGGGAAACCACGCAAGGGAUGGUGUCAAAUUCGGCGAAACCUAAGCGCCCGCCCGGGCGUAUGGCAACGCCGAGCCAAGCUUCGGCGCCUGCGCCGAUGAAGGUGUAGAGACUAGACGGCACCCACCUAAGGCAAACGGUAUGGUGAAGGCAUAGUCUAGGGAGUGGCGAAAGUCACACAAACCGG [C150G C169U], the reverse-splicing fitness was determined as 0.0492. For GUGCCUUGCGCCGGGAAACCACGCAAGGGAUGGUGUCAAAUUCGGCGAAACCUAAGCGCCCGCCCGGGCGUAUGGCAACGCAGAGCCAAGCUUCGGCGCCUGCGCCGAUGCAGGUGUAGAGACUAGACGGCACCCACCUAAGGCAAACGUUAUGGUGAAGGCAUAGUCUAGGGAGCGGCGAAAGUCACACAAACCGG [C82A A111C C150U C169U U176C], the reverse-splicing fitness worked out at 0.0147. As to GUGCCUUGCGCCGGGAAACCACGCAAGGGAUGGUGUCAAAUUCGGCGAAACCUAAGCGCCCGCCCGGGCGUAUGGCAACGCCGAGCCAAGCUUCGGCGCCUGCGCCGAUGCAGGUGUAGCGACUAGACGGCACCCACCUAAGGCUAACGUUAUGGUGAAGGCAUAGUCGAGGGAGAGGCGAAAGUCACACAAACCGG [A111C A120C A145U C150U C169G U176A], the reverse-splicing fitness is 0.0128. As for GUGCCUUGCGCCGGGAAACCACGCAAGGGAUGGUGUCAAAUUCGGCGAAACCUAAGCGCCCGCCCGGGCGUAUGGCAACGCCGAGCCAAGCUUCGGCGCCUGCGCCGAUGAAGGUGUAGAGACUAGACGGCACCCACCUAAGGCAAACGCUAUGGUGAAGGCAUAGUCCAGGGAGCGGCGAAAGUCACACAAACCGG [U176C], the reverse-splicing fitness is 0.815.

As for GUGCCUUGCGCCGGGAAACCACGCAAGGGAUGGUGUCAAAUUCGGCGAAACCUAAGCGCCCGCCCGGGCGUAUGGCAACGCGGAGCCAAGCUUCGGCGCCUGCGCCGAUGAAGGUGUAGGGACUAGACGGCACCCACCUAAGGCGAACGCUAUGGUGAAGGCAUAGUCCAGGGAGGGGCGAAAGUCACACAAACCGG [C82G A120G A145G U176G], the reverse-splicing fitness was found to be 0.00636. Consider GUGCCUUGCGCCGGGAAACCACGCAAGGGAUGGUGUCAAAUUCGGCGAAACCUAAGCGCCCGCCCGGGCGUAUGGCAACGCGGAGCCAAGCUUCGGCGCCUGCGCCGAUGAAGGUGUAGGGACUAGACGGCACCCACCUAAGGCGAACGCUAUGGUGAAGGCAUAGUCCAGGGAGUGGCGAAAGUCACACAAACCGG [C82G A120G A145G], for which the reverse-splicing fitness is 0.0281. Next, GUGCCUUGCGCCGGGAAACCACGCAAGGGAUGGUGUCAAAUUCGGCGAAACCUAAGCGCCCGCCCGGGCGUAUGGCAACGCCGAGCCAAGCUUCGGCGCCUGCGCCGAUGGAGGUGUAGAGACUAGACGGCACCCACCUAAGGCGAACGGUAUGGUGAAGGCAUAGUCAAGGGAGCGGCGAAAGUCACACAAACCGG [A111G A145G C150G C169A U176C]: 0.0135; GUGCCUUGCGCCGGGAAACCACGCAAGGGAUGGUGUCAAAUUCGGCGAAACCUAAGCGCCCGCCCGGGCGUAUGGCAACGCCGAGCCAAGCUUCGGCGCCUGCGCCGAUGUAGGUGUAGAGACUAGACGGCACCCACCUAAGGCGAACGGUAUGGUGAAGGCAUAGUCUAGGGAGUGGCGAAAGUCACACAAACCGG [A111U A145G C150G C169U]: 0.0181.

In the case of GUGCCUUGCGCCGGGAAACCACGCAAGGGAUGGUGUCAAAUUCGGCGAAACCUAAGCGCCCGCCCGGGCGUAUGGCAACGCCGAGCCAAGCUUCGGCGCCUGCGCCGAUGUAGGUGUAGCGACUAGACGGCACCCACCUAAGGCGAACGGUAUGGUGAAGGCAUAGUCUAGGGAGCGGCGAAAGUCACACAAACCGG [A111U A120C A145G C150G C169U U176C], the reverse-splicing fitness was found to be 0.0127. Next, GUGCCUUGCGCCGGGAAACCACGCAAGGGAUGGUGUCAAAUUCGGCGAAACCUAAGCGCCCGCCCGGGCGUAUGGCAACGCAGAGCCAAGCUUCGGCGCCUGCGCCGAUGUAGGUGUAGCGACUAGACGGCACCCACCUAAGGCCAACGAUAUGGUGAAGGCAUAGUCUAGGGAGCGGCGAAAGUCACACAAACCGG [C82A A111U A120C A145C C150A C169U U176C]: 0.0124.

Source of the values: the RNAGym collection of RNA variant scans (doi:10.1093/molbev/msab373).
